According to patent US20230322880A1 (MEDIKINE, published 2023):
Where no end group is shown, it is not given here.

Molecular target: T1, IL-7Rα-Fc (CD127 protein, Fc tag; ECD 21-236; ACRObiosystems, Inc, Cat. #ILA-H5258) (human, UniProt P16871 21-236)
T1 construct: range 21-236; also called hu-IL-7Rα subunit; not shown: Fc tag of the purchased protein
T1 sequence (looked up): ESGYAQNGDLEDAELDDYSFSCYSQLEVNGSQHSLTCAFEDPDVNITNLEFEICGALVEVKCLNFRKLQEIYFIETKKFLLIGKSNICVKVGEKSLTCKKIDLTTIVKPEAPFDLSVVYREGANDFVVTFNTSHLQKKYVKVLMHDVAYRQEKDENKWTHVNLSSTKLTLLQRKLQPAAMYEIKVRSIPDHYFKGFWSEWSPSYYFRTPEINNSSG
Experiment: competition binding ELISA, plate-coated receptor, biotinylated reference peptide::NA-HRP tracer
Description: Binding of the synthetic IL-7Rα ligands to IL-7Rα was evaluated using a competition binding ELISA. Microtiter plate wells were coated with IL-7Rα-Fc (CD127 protein, Fc tag; ECD 21-236; ACRObiosystems, Inc, Cat. #ILA-H5258) at 1 μg/mL; 50 μL per well in PBS for at least 1 h. The plate was washed once with wash buffer (200 μL, PBS containing 0.05% Tween®-20 (Sigma). Wells were blocked with blocking buffer (PBS containing 1% BSA (BSA Fraction V; VWR Cat. No. 97061-416) for 1 h. A serial dilution of the peptides was prepared, at twice the final concentration, in assay buffer (PBS containing 0.5% BSA and 0.05% Tween®-20) in a 96-well polypropylene plate. A terminal biotinylated form of the reference IL-7Rα peptide ligand having SEQ ID NO: 300 ([…]) was used to make a precomplex with NeutrAvidin-HRP (NA-HRP; ThermoFisher Cat. No. 31030) (Precomplex referred to as bnPeptide::NA-HRP). The bnPeptide::NA-HRP precomplex was prepared by mixing 1.5 μL 100 μM biotinylated peptide, 2 μL NA-HRP and 11.5 PBS and incubated at 4° C. for at least 45 min. After blocking the wells, the plate was washed with a plate washer and serial dilutions of the peptides were added (50 μL/well) and the plate was incubated at 4° C. for 1 h on a plate shaker. […] Fifty (50) μL of a solution (Surmodics Cat. #LSTP-0100-0) was then added and the plate read at 450 nm. […]

- binding result: binds
B1: IL-7Rαγc ligand having SEQ ID NO: 30 (peptide)
peptide: GWGIPWCTLDPGSLQCAWLGKHGGGGSGGVVCQDWEGVELCWQGG
modifications: disulfide (positions not given here); also: two disulfide bridges, pairing not given here
